For one molecule, Kd results are on record in article PMC11385167 (mAbs, 2024).

By Kd is commonly meant the free concentration of one partner at which half of the binding sites on the other are occupied at equilibrium, for simple one-to-one binding. A high value points to lower affinity.

This assay concerns the target T1, human MR C-type 1, full extracellular domain (human, UniProt P22897 19-1389).
T1 sequence (looked up): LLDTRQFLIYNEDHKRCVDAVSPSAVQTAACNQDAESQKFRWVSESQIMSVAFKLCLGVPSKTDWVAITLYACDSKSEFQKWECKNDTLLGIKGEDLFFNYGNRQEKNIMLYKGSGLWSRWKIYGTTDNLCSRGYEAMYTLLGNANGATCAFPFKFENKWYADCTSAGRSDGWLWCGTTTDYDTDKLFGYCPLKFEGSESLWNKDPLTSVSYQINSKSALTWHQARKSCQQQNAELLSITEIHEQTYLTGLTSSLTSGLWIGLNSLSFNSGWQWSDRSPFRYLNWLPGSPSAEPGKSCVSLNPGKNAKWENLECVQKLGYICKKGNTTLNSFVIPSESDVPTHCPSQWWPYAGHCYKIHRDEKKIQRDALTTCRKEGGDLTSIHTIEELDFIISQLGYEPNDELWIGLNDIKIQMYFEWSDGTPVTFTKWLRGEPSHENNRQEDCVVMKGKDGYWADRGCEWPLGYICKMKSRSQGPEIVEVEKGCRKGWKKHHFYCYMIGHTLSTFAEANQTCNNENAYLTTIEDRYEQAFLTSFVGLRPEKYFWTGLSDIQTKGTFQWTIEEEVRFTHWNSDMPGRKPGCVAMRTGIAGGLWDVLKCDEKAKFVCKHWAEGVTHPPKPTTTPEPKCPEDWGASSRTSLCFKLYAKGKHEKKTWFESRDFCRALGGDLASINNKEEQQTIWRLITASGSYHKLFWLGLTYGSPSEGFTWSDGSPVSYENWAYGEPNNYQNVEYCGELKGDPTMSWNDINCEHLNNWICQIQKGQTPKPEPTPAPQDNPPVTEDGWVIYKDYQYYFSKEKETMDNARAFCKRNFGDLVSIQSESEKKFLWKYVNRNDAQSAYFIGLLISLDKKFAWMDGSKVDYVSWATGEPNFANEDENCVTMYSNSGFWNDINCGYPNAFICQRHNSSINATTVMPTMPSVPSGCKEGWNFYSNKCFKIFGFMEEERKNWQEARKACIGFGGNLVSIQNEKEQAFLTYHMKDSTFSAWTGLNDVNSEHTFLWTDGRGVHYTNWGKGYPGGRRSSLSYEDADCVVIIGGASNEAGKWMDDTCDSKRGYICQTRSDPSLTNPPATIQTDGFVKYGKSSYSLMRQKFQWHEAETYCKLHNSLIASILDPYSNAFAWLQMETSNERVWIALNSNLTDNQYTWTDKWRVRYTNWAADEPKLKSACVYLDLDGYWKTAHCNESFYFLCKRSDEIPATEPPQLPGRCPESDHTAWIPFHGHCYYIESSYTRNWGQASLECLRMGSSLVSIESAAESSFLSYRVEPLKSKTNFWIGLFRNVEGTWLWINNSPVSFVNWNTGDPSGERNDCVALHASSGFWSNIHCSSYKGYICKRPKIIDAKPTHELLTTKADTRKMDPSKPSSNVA
The assay is described as follows: SPR. For orientation: Surface plasmon resonance follows binding to a sensor surface in real time, without labels.

B1: RNAse B (enzyme, UniProt P61823 27-150, looked up)
chain: KETAAAKFERQHMDSSTSAASSSNYCNQMMKSRNLTKDRCKPVNTFVHESLADVQAVCSQKNVACKNGQTNCYQSYSTMSITDCRETGSSKYPNCAYKTTQANKHIIVACEGNPYVPVHFDASV
modifications: single N-glycosylation site containing mainly M5 and M6 N-glycans
In turn, B1 registered a Kd of 1300 nM.
